The record followed here is US20240376227A1 (published 2024).

One assay concerns the target T1, endogenous CK2α protein (UniProt P68400 1-391).
T1 construct: Native protein in cell lysates, chromatin fractions or fixed tissue sections of human origin; also called cellular endogenous CK2α protein; CK2α protein localized to the nucleolus
Kind of assay: Western blotting after immunoprecipitation, MCF-7 and Flag-CK2α-expressing HEK293 cells. The protocol: A lysate was prepared from a breast cancer cell line MCF-7 (JCRB cell bank, #JCRB0134) and Flag-CK2α protein-expressing HEK293 cells. The MCF-7 cell line or Flag-CK2α-protein-expressing HEK293 cells were cultured, and washed with PBS, and then collected from the plate. A soluble fraction was partially purified from the cell lysate in accordance with common methods, and the anti-CK2α antibody (1 μg of six antibodies of the present invention or the control antibody) was added. Then, mixing was performed mildly at 4° C. for two hours, and then, Protein G-agarose beads were added, and a CK2α immune complex was formed. Then, the immunoprecipitates obtained by centrifugation were treated with SDS, and then electrophoresed. In Western blotting, the antibody of the present invention or the control antibody was used at 0.1 μg/mL.
The Western blotting performed with the control antibody detected, in the MCF-7 cell line, a band of the endogenous CK2α and in addition, a nonspecific band equal to or stronger than the band, and also detected, in the Flag-CK2α protein-expressing HEK293 cells, bands of the endogenous CK2α and Flag-CK2α, and in addition, a nonspecific band equal to or stronger than the bands.
Background: Immunoblotting shows a protein as a band on a membrane.

Assay [1] concerns the target T2, recombinant human CK2α protein (human, UniProt P68400 1-391).
T2 construct: also called recombinant CK2α protein; Casein kinase 2 alpha 1
Put plainly: Western blotting on 0.05, 0.1 or 0.2 µg purified recombinant protein, antibody at 0.1 µg/mL. The protocol:
Using mAb (6A3), mAb (10B2), mAb (15C1), mAb (16C2), mAb (19C2), and mAb (21B1) of the present invention, a purified product of recombinant CK2α protein was detected by Western blotting. The recombinant CK2α protein obtained by purifying the human-derived CK2α protein expressed by introducing the pGEX2T-CK2α gene in E. coli was used. The recombinant CK2α protein in an amount of 0.05 μg, 0.1 μg, or 0.2 μg was treated with SDS, electrophoresed, and was subjected to detection with six antibodies of the present invention at 0.1 μg/mL.

T1 sequence (P68400 whole entry): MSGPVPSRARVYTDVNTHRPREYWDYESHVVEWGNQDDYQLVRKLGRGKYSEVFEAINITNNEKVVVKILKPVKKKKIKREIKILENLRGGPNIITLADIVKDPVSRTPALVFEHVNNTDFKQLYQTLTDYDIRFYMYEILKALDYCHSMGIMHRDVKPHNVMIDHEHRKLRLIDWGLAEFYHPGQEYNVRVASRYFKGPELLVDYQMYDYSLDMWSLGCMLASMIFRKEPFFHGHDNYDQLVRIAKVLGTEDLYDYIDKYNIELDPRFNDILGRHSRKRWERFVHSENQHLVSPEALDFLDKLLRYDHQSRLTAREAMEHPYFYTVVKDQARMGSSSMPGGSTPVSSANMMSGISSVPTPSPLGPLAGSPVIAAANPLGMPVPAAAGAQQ
T2 sequence (P68400 whole entry): as above

B1: mouse anti-CK2α monoclonal antibody clone 10B2, mAb (10B2) (antibody, mouse IgG2b, V domains shown)
VH: QVQLQQSGAELVRPGASVTLSCKASGYTFTDYQMHWVKQTPVHGLEWIGVIDPGTGGTAYNQKFKGKAILTADKSSNTAYMELRSLTSEDSAVYYCTGFVWGTGSPVTVSS
VL: DIQMTQSPSSLSASLGERVSLTCRASQDIGNNLNWLQQEPDGTIKRLIYATSSLDSGVPKRFTGSRSGSDYSLTISSLESEDFVDYYCLQYAIFPYTFGGGTKLEIKR
notes: As printed they appear to include a leader and the first constant region residues
For the molecule B1, the binding result (in the assay with endogenous CK2α protein; in assay [1]) was “binds” in each case.

B2: mouse anti-CK2α monoclonal antibody clone 16C2, mAb (16C2) (antibody, mouse IgG2b, V domains shown)
VH: QVQLQQSGAELVRPGASVTLSCKASGYKFTDYQMHWVKQTPVHGLEWIGVLDPGTGGTAYNQKFRGKAILTADKSSSTAYMELRSLTSEDSAVYYCTGFVWGTGTTVTVSS
VL: DIQMTQSPSSLSASLGERVSLTCRASQDIGSSLNWLQQEPDGTIKRLIYATSSLDSGVPKRFSGSRSGSDYSLTISSLESEDFVDYYCLQYAIFPYTFGGGTKLEIKR
notes: as for B1
In the case of B2, the binding result (in the assay with endogenous CK2α protein; in assay [1]) was “binds” each time.

B3: mouse anti-CK2α monoclonal antibody clone 15C1, mAb (15C1) (antibody, mouse IgG2b, V domains shown)
VH: QVQLQQSGAELVRPGASVTLSCKASGYTFTDFQMHWVKQTPVHGLEWIGVIDPGTGGTAYNQKFKDKAILTADKSSNTAYMELRSLTSEDSAVYYCTGFVWGTGTTVTVSS
VL: DIQMTQSPSSLSASLGERVSLTCRASQDIGNNLNWLQQEPDGTIKRLIYATSSLDSGVPKRFTGSRSGSDYSLTISSLESEDFVDYYCLQYAIFPYTFGGGTKLEIKR
notes: as for B1
B3: the binding result (in the assay with endogenous CK2α protein; in assay [1]) was “binds” throughout.
